Data: paper PMC10514044, “Structural basis of the activation of TRPV5 channels by long-chain acyl-Coenzyme-A” (Nature Communications, 2023)

Molecular target: the molecule itself
Experiment: cryo-EM structure; TRPV5 in lipid nanodiscs (MSP2N2, soy polar lipids), incubated with 400 uM oleoyl-CoA or 400 uM diC8-PI(4,5)P2 for 45 min; 20 mM HEPES pH 8.0, 150 mM NaCl, 2 mM TCEP; C4 symmetry imposed

B1: full-length rabbit TRPV5 (natural protein, UniProt Q9XSM3 1-730, looked up)
chain: MGACPPKAKGPWAQLQKLLISWPVGEQDWEQYRDRVNMLQQERIRDSPLLQAAKENDLRLLKILLLNQSCDFQQRGAVGETALHVAALYDNLEAATLLMEAAPELAKEPALCEPFVGQTALHIAVMNQNLNLVRALLARGASVSARATGAAFRRSPHNLIYYGEHPLSFAACVGSEEIVRLLIEHGADIRAQDSLGNTVLHILILQPNKTFACQMYNLLLSYDEHSDHLQSLELVPNHQGLTPFKLAGVEGNTVMFQHLMQKRKHVQWTCGPLTSTLYDLTEIDSWGEELSFLELVVSSKKREARQILEQTPVKELVSFKWKKYGRPYFCVLASLYILYMICFTTCCIYRPLKLRDDNRTDPRDITILQQKLLQEAYVTHQDNIRLVGELVTVTGAVIILLLEIPDIFRVGASRYFGQTILGGPFHVIIITYASLVLLTMVMRLTNMNGEVVPLSFALVLGWCSVMYFARGFQMLGPFTIMIQKMIFGDLMRFCWLMAVVILGFASAFHITFQTEDPNNLGEFSDYPTALFSTFELFLTIIDGPANYSVDLPFMYCITYAAFAIIATLLMLNLFIAMMGDTHWRVAQERDELWRAQVVATTVMLERKMPRFLWPRSGICGYEYGLGDRWFLRVENHHDQNPLRVLRYVEAFKCSDKEDGQEQLSEKRPSTVESGMLSRASVAFQTPSLSRTTSQSSNSHRGWEILRRNTLGHLNLGLDLGEGDGEEVYHF
notes: TRPV5, rabbit, full length, in a YepM vector; also called Transient receptor potential vanilloid 5; TRPV5_(CoA Open)
  binding result: binds
